The values below come from publication PMC7511310, “Ancestral sequence reconstruction produces thermally stable enzymes with mesophilic enzyme-like catalytic properties” (Scientific Reports, 2020).

Holding throughout (assay): A340 NADH formation, steady state, Michaelis-Menten fit
Substrate in series [1]: NC(=O)c1ccc[n+]([C@@H]2O[C@H](COP(=O)(O)OP(=O)(O)OC[C@H]3O[C@@H](n4cnc5c(N)ncnc54)[C@H](O)[C@@H]3O)[C@@H](O)[C@H]2O)c1
Type of series: biochemical, Thermus thermophilus. The settings on record: 25 °C, 50 mM HEPES pH 8.0, 100 mM KCl, 5 mM MgCl2, 0.2 mM D-3-IPM fixed, 25.0 °C, varied: cofactor. The source says:
(§1) A340 NADH formation, steady state, Michaelis-Menten fit on T. thermophilus IPMDH

Substrate in series [2]: CC(C)[C@H](C(=O)O)[C@@H](O)C(=O)O
Type of series: biochemical, Thermus thermophilus. The conditions noted are these: 40 °C, 50 mM HEPES pH 8.0, 100 mM KCl, 5 mM MgCl2, 5 mM NAD+ fixed, 40.0 °C.
Source text: as §1

Substrate in series [3]: NC(=O)c1ccc[n+]([C@@H]2O[C@H](COP(=O)(O)OP(=O)(O)OC[C@H]3O[C@@H](n4cnc5c(N)ncnc54)[C@H](O)[C@@H]3O)[C@@H](O)[C@H]2O)c1
Type of series: biochemical, Saccharomyces cerevisiae. The settings on record: 25 °C, 50 mM HEPES pH 8.0, 100 mM KCl, 5 mM MgCl2, 0.2 mM D-3-IPM fixed, 25.0 °C, varied: cofactor. The source says: (§2) A340 NADH formation, steady state, Michaelis-Menten fit on S. cerevisiae IPMDH

Substrate in series [4]: CC(C)[C@H](C(=O)O)[C@@H](O)C(=O)O
Type of series: biochemical, Saccharomyces cerevisiae. The conditions noted are these: 40 °C, 50 mM HEPES pH 8.0, 100 mM KCl, 5 mM MgCl2, 5 mM NAD+ fixed, 40.0 °C.
Source text: as §2

Substrate in series [5]: NC(=O)c1ccc[n+]([C@@H]2O[C@H](COP(=O)(O)OP(=O)(O)OC[C@H]3O[C@@H](n4cnc5c(N)ncnc54)[C@H](O)[C@@H]3O)[C@@H](O)[C@H]2O)c1
Type of series: biochemical, Bacillus subtilis. The conditions noted are these: 25 °C, 50 mM HEPES pH 8.0, 100 mM KCl, 5 mM MgCl2, 0.2 mM D-3-IPM fixed, 25.0 °C, varied: cofactor. The source says: (§3) A340 NADH formation, steady state, Michaelis-Menten fit on B. subtilis IPMDH

Substrate in series [6]: CC(C)[C@H](C(=O)O)[C@@H](O)C(=O)O
Type of series: biochemical, Bacillus subtilis. The conditions noted are these: 40 °C, 50 mM HEPES pH 8.0, 100 mM KCl, 5 mM MgCl2, 5 mM NAD+ fixed, 40.0 °C.
Source text: as §3

As usually defined, the Km is the concentration of substrate that gives half-maximal velocity. By kcat is commonly meant the number of substrate molecules converted per active site and unit of time at saturation.

B1: T. thermophilus IPMDH (Thermus thermophilus HB8) (protein)
chain: MKVAVLPGDGIGPEVTEAALKVLRALDEAEGLGLAYEVFPFGGAAIDAFGEPFPEPTRKGVEEAEAVLLGSVGGPKWDGLPRKIRPETGLLSLRKSQDLFANLRPAKVFPGLERLSPLKEEIARGVDVLIVRELTGGIYFGEPRGMSEAEAWNTERYSKPEVERVARVAFEAARKRRKHVVSVDKANVLEVGEFWRKTVEEVGRGYPDVALEHQYVDAMAMHLVRSPARFDVVVTGNIFGDILSDLASVLPGSLGLLPSASLGRGTPVFEPVHGSAPDIAGKGIANPTAAILSAAMMLEHAFGLVELARKVEDAVAKALLETPPPDLGGSAGTEAFTATVLRHLA
notes: extant thermophilic wild type; homodimer
B1: in series [1], the Km amounted to 2.2 ± 0.3 µM and the kcat came to 0.37 ± 0.01 s⁻¹. Further, in series [2], the Km worked out at 2.3 ± 0.8 µM and the kcat worked out at 2.4 ± 0.1 s⁻¹.

B2: S. cerevisiae IPMDH (Saccharomyces cerevisiae S288C) (protein)
chain: MSAPKKIVVLPGDHVGQEITAEAIKVLKAISDVRSNVKFDFENHLIGGAAIDATGVPLPDEALEASKKADAVLLGAVGGPKWGTGSVRPEQGLLKIRKELQLYANLRPCNFASDSLLDLSPIKPQFAKGTDFVVVRELVGGIYFGKRKEDDGDGVAWDSEQYTVPEVQRITRMAAFMALQHEPPLPIWSLDKANVLASSRLWRKTVEETIKNEFPTLKVQHQLIDSAAMILVKNPTHLNGIIITSNMFGDIISDEASVIPGSLGLLPSASLASLPDKNTAFGLYEPCHGSAPDLPKNKVNPIATILSAAMMLKLSLNLPEEGKAIEDAVKKVLDAGIRTGDLGGSNSTTEVGDAVAEEVKKILA
notes: recombinant from E. coli Rosetta2 (DE3), pET21c(+) NdeI-BamHI, purified by HiTrap-Q, HiTrap-Butyl and ResourceQ; no tag mentioned
In the case of B2, in series [3], the Km turned out to be 130 ± 10 µM and the kcat worked out at 5.1 ± 0.1 s⁻¹. Moreover, in series [4], the Km was 4.5 ± 0.7 µM and the catalytic constant (kcat) was 20 ± 1 s⁻¹.

B3: B. subtilis IPMDH (Bacillus subtilis subsp. subtilis str. 168) (protein)
chain: MKKRIALLPGDGIGPEVLESATDVLKSVAERFNHEFEFEYGLIGGAAIDEHHNPLPEETVAACKNADAILLGAVGGPKWDQNPSELRPEKGLLSIRKQLDLFANLRPVKVFESLSDASPLKKEYIDNVDFVIVRELTGGLYFGQPSKRYVNTEGEQEAVDTLFYKRTEIERVIREGFKMAAARKGKVTSVDKANVLESSRLWREVAEDVAQEFPDVKLEHMLVDNAAMQLIYAPNQFDVVVTENMFGDILSDEASMLTGSLGMLPSASLSSSGLHLFEPVHGSAPDIAGKGMANPFAAILSAAMLLRTSFGLEEEAKAVEDAVNKVLASGKRTRDLARSEEFSSTQAITEEVKAAIMSENTISNV
notes: as for B2
As to B3, the Km in series [5] was found to be 110 ± 10 µM; in series [6] it was 0.78 ± 0.11 µM. For the same protein, the values for the kcat in series [5] and in series [6] were 2.8 ± 0.1 s⁻¹ and 9.4 ± 0.2 s⁻¹, respectively.
